According to paper PMC5934647, “Targeting IS608 transposon integration to highly specific sequences by structure-based transposon engineering”:

Target: T1, IS608 TnpA transposase (Helicobacter pylori (IS608), UniProt Q933Z0 1-155)
T1 sequence: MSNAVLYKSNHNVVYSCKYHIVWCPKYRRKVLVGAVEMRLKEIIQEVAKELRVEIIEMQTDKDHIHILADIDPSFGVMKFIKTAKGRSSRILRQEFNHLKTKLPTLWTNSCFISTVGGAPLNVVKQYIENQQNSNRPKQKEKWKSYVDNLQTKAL
Experiment: X-ray crystallography (2.6 A); Ca2+; 2 LE29 and 2 T6' per TnpA dimer; pre-cleavage target capture complex; Crystal complex: TnpA:LE29:T6' 1:1:1.3, 20 mM Tris-HCl pH 7.5, 0.2 M NaCl, 0.2 mM TCEP, 2 mM EDTA; crystallized with 14.6% PEG 3350, 0.19 M calcium acetate; cleavage and integration assays are activity read-outs and not listed
Details: protein: recombinant; chain copies: 2; LE29 imperfect hairpin; GL of LE29 pairs with TTAC of T6', A+42 and T+43 form base triplets; 2 copies of each strand per TnpA dimer

B1: LE29 hairpin + T6' target oligo (structured_DNA)
DNA 1: AAAGCCCCTAGCTTTTAGCTATGGGGATA
DNA 2: ATTACC
  binding result: binds
